# Measured values published in US20180251563A1 (SUBDOMAIN, published 2018).
# Numbering of substitutions follows the chain as printed.
# T1: CD123 (target of Example 19) (Homo sapiens (Human), UniProt P26951 19-305, limits assumed)
# T1 sequence: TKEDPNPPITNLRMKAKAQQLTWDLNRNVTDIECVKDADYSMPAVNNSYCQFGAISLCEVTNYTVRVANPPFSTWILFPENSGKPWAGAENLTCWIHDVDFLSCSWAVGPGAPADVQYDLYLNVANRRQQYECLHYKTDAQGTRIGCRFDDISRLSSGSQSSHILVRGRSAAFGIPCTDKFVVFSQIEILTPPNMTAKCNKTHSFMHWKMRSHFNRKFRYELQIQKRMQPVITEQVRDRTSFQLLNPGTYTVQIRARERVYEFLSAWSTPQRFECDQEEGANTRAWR
# B1: SEQ ID NO 14 (designed binder)
# chain: MGSWYEFRHRLWAIDQRLYALGGSEAELAAFEKEIAAFESELQAYKGKGNPEVEGLREAAAFIRAKLQAYRHN
# B2: SEQ ID NO 12 (designed binder)
# chain: B1 chain with Y5V, R8G, G55K, E58Q, A59R, A65F, K66R
# B3: SEQ ID NO 28 (designed binder)
# chain: MGSWVYFKEHLAWIKTELEALGGSEAELAHFEHSIADFEMSLQFYKGKGNPEVEALRKEAAAIRDELQAYRHN
# B4: SEQ ID NO 32 (designed binder)
# chain: B3 chain with V5I, W13Y, T16K, H33S, S34A, D37V, M40S, S41T, F44Y
# B5: SEQ ID NO 26 (designed binder)
# chain: MGSWNYFKDHLAWIKNSLEALGGSEAELAHFETAIASFERQLQEYKGKGNPEVEALRKEAAAIRDELQAYRHN
# B6: SEQ ID NO 31 (designed binder)
# chain: B5 chain with N5H, D9G, W13E, S17H, T33R, S37A, Q41S, E44W
# B7: SEQ ID NO 29 (designed binder)
# chain: B5 chain with N5F, D9Q, N16S, S17Y, T33R, S37A, R40Q, Q41H, E44M
# B8: SEQ ID NO 30 (designed binder)
# chain: B5 chain with N5H, W13E, N16G, S17L, T33M, S37D, R40H, Q41N, E44Y
# B9: SEQ ID NO 27 (designed binder)
# chain: B5 chain with N5L, D9E, W13H, N16A, S17W, T33L, S37D, R40Y, Q41H
# B10: SEQ ID NO 34 (designed binder)
# chain: B5 chain with N5W, Y6L, W13E, N16T, S17A, T33M, S37A, R40K, E44Y
# B11: SEQ ID NO 33 (designed binder)
# chain: B3 chain with V5T, W13E, T16Y, E17M, H33V, S34A, M40K, S41M, F44Y
# B12: SEQ ID NO 53 (designed binder)
# chain: MGSWYEFRHRLWAIDQRLYALGGSEAELAAFEKEIAAFESELQAYKGKGNPEVEGLREAAAFIRAKLQAYRHNGGGGSHHHHHH
# notes: E. coli, IMAC and HPLC purified
# B13: SEQ ID NO 52 (designed binder)
# chain: B12 chain with Y5V, R8A, H9N, Y19F, G55H, E58D, A59Q, A65H
# notes: as for B12
# B14: SEQ ID NO 57 (designed binder)
# chain: B12 chain with R8H, H9Y, W12H, G55E, E58I, A59K, A65D, K66R
# notes: as for B12
# B15: SEQ ID NO 51 (designed binder)
# chain: B12 chain with Y5V, R8G, G55K, E58Q, A59R, A65F, K66R
# notes: as for B12
# B16: SEQ ID NO 56 (designed binder)
# chain: B12 chain with R8G, G55Y, A59T, F62H, A65T, K66R
# notes: as for B12
# B17: SEQ ID NO 54 (designed binder)
# chain: B12 chain with R8S, H9M, G55A, E58A, A59K, F62Y, A65W
# notes: as for B12
# B18: SEQ ID NO 55 (designed binder)
# chain: B12 chain with Y5F, R8N, D15N, Q16E, G55R, E58S, A59M, A65Y
# notes: as for B12
# B19: SEQ ID NO 58 (designed binder)
# chain: MGSWAEFKQRLAAIKTRLEALGGSEAELAAFLGEIWAFEMELAAYKGKGNPEVEALGREAAAIRMELQAYRHNGGGGSHHHHHH
# notes: E. coli, IMAC and HPLC purified; also called His-fusion of bb10
# B20: SEQ ID NO 62 (designed binder)
# chain: MGSWYEFEDRLAAIEARLWALGGSEAELADFEEEIAYFEHGLQWYKGKGNPEVEALESEAMAIIDELHAYRHN
# B21: SEQ ID NO 63 (designed binder)
# chain: MGSWYEFEERLDAIEDRLIALGGSEAELAIFEDIIAFFEQDLQYYKGKGNPEVEALEMEAEAISIELDAYRHN
# B22: SEQ ID NO 64 (designed binder)
# chain: MGSWWEFEDRLWAIDRRLMALGGSEAELAVFEQMIAHFEQILQVYKGKGNPEVEALHFEAHAIGMELAAYRHN
# B23: SEQ ID NO 113 (designed binder)
# chain: MGSWFEFWDRLDAIEDRLYALGGSEAELAAFEKEIAAFESELQAYKGKGNPEVEELRDEAAWIRGTLQAYRHN
# B24: SEQ ID NO 118 (designed binder)
# chain: B23 chain with D9G, D12E, D16S, Y19K, D58E, E59H, G65A, T66Y
# B25: SEQ ID NO 60 (designed binder)
# chain: MGSWIEFEDRLDAITDRLWALGGSEAELAEFEHQIAFFEEDLQWYKGKGNPEVEALHMEAEAIMEELGAYRHN
# B26: SEQ ID NO 65 (designed binder)
# chain: MGSWEEFHERLDAIDERLEALGGSEAELAFFEDDIASFEDWLQWYKGKGNPEVEALSREADAINFELEAYRHN
# B27: SEQ ID NO 119 (designed binder)
# chain: MGSWTEFSIRLEAIYDRLVALGGSEAELAAFEKEIAAFESELQAYKGKGNPEVEVLRTYAANIRHELQAYRHN
# B28: SEQ ID NO 121 (designed binder)
# chain: B27 chain with T5Y, S8V, Y15E, V19W, T58W, N62D
# B29: SEQ ID NO 127 (designed binder)
# chain: B27 chain with T5Y, I9M, E12D, V19M, V55Q, T58G, H65N
# B30: SEQ ID NO 126 (designed binder)
# chain: B27 chain with T5H, S8G, I9V, E12D, V19M, V55F, T58Q, Y59A, H65S
# B31: SEQ ID NO 61 (designed binder)
# chain: MGSWVEFEYRLDAISDRLWALGGSEAELAFFENEIASFESDLQFYKGKGNPEVEALMFEAEAIDDELHAYRHN
# B32: SEQ ID NO 109 (designed binder)
# chain: MGSWNEFYDRLSAIYFRLQALGGSEAELAAFEKEIAAFESELQAYKGKGNPEVEHLRWYAADIRMILQAYRHN
# B33: SEQ ID NO 117 (designed binder)
# chain: B32 chain with N5Y, D9N, F16A, H55D, M65Y, I66M
# B34: SEQ ID NO 116 (designed binder)
# chain: B32 chain with N5V, S12H, Q19L, H55D, M65L, I66V
# B35: SEQ ID NO 106 (designed binder)
# chain: MGSWHEFDQRLWAIEERLWALGGSEAELAAFEKEIAAFESELQAYKGKGNPEVETLRLYAALIRHDLQAYRHN
# B36: SEQ ID NO 107 (designed binder)
# chain: B35 chain with H5I, D8E, Q9S, E16D, W19L, T55F, Y59E, L62D, H65E
# B37: SEQ ID NO 120 (designed binder)
# chain: MGSWYEFENRLEAIEERLWALGGSEAELAAFEKEIAAFESELQAYKGKGNPEVEMLREEAAFIRDWLQAYRHN
# B38: SEQ ID NO 108 (designed binder)
# chain: B37 chain with E12G, E15G, E16D, M55W, E58D, F62Y, D65A, W66V
# B39: SEQ ID NO 122 (designed binder)
# chain: B23 chain with F5I, W8E, D12E, Y19F, E55W, D58Q, W62E, G65L, T66M
# Target: T2, recombinant, biotinylated, Human 4-1BB/TNFRSF9/CD137-Fc (human, UniProt Q07011 24-186, biotinylated (F2NNK selection))
# T2 construct: also called 4-1BB/CD137; not shown: Fc
# Experiment: phage ELISA, target-Fc against non-specific control
# Method: (§1) Selections were also performed using F1, F2, F3, C1 & C2 trinucleotide phosphoramidite libraries. In most cases, libraries were pooled prior to use in selection. By combining equal volumes of the individual libraries, Pool F (libraries F1, F2 and F3) and Pool C (libraries C1 and C2) were generated. These libraries were used in selections for DBDpp binders to 4-1BB/CD137 as well as a larger panel of purified recombinant “target”-Fc proteins, including CD47, CTLA4, DR5, KIR, LAG3, OX40, PD1, PD-L1 and TIM3. (Many of these targets are considered immuno-regulatory factors (Pardoll et al., Nat. Rev. Cancer 12:252-264 (2012)). After incubation of the target with the pools of DBDpp phage libraries, bound phage-target complexes were captured and separated from unbound phage with protein A beads (target proteins were Fc fusions). After three rounds of selection, rescued phage clones were screened by ELISA for binding to the selected target.
# (§2) For each target, approximately 90 DBDpp phage clones were screened by ELISA for binding to the target protein and as well as a non-specific control (e.g., IgG1-Fc). […] In some instances, for the ELISA screening plate in which the majority of DBDpp clones were positive, the entire plate was sequenced.
# T2 sequence (Q07011 24-186 limits assumed): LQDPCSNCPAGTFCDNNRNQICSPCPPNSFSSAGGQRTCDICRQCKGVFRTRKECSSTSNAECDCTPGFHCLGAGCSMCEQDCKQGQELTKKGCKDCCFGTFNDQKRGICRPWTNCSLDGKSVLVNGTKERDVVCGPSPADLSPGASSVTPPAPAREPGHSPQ
row,Binder,ELISA ratio (target to background) [ratio]
1,B1,13
2,B2,20.6

# Target: T3, DR5-Fc (UniProt O14763 56-182, limits assumed)
# T3 construct: purified recombinant target-Fc protein; not shown: Fc
# Experiment: as above
# Method: as §1, §2
# T3 sequence (O14763 56-182 limits assumed): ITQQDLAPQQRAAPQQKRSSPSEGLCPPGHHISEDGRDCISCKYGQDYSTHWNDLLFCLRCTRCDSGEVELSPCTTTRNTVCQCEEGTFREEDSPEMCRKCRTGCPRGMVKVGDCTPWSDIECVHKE
row,Binder,ELISA ratio (target to background) [ratio]
1,B3,12.1
2,B4,10.7
3,B5,13
4,B6,10.8
5,B7,11.8
6,B8,11.4
7,B9,12.3
8,B10,9.75
9,B11,10.3

# Target: T4, CD137-Fc-His6 fusion protein
# T4 construct: Made in HEK293 cells, IMAC purified; also called CD137 target protein
# Experiment: biolayer interferometry (ForteBio), CD137-Fc-His6 immobilized via protein A, steady state fit
# Method: The binding of the eight his-tagged DBDpp ligands (SEQ ID NO:51-58) to the CD137 target protein was assessed using biolayer interferometry (ForteBio, Menlo Park, Calif.) according to established methods. The binding assay was constructed by immobilizing the CD137-Fc-His6 via protein A and then incubating in solutions of each of the DBDpp ligands for 5 minutes to measure the association (binding) phase. The sensors were then placed in buffer to monitor the dissociation phase and the complete sensorgrams (time in seconds on the X-axis and nm on the Y-axis) are shown in FIGS. 12A, 12C, 12E, 12G, 12I, 12K, 12M, and 12O for DBDpps of SEQ ID Nos: 51-58, respectively. The data was fitted by steady state analysis, which is depicted in each of FIGS. […], 12F, 12H, 12J, 12L, 12N, and 12P for the corresponding DBDpp.
row,Binder,Kd [nM]
1,B12,140
2,B13,460
3,B14,1000
4,B15,640
5,B16,770
6,B17,400
7,B18,170
8,B19,1700

# Target: T1, CD123 (target of Example 19)
# Experiment: library selection; assay not described
row,Binder,binding result
1,B20,binds
2,B21,binds
3,B22,binds
4,B23,binds
5,B24,binds
6,B25,binds
7,B26,binds
8,B27,binds
9,B28,binds
10,B29,binds
11,B30,binds
12,B31,binds
13,B32,binds
14,B33,binds
15,B34,binds
16,B35,binds
17,B36,binds
18,B37,binds
19,B38,binds
20,B39,binds
